The values below come from patent US20170369569A1 (KAO, published 2017).

Ends that are not written are not given here.

The target in assay [1] is T1, GIP(1-6) synthetic peptide.
T1 peptide: H-YAEGTF-OH
Kind of assay: direct ELISA on immobilized peptide, biotinylated antibody, peroxidase-streptavidin. On the procedure: (§1) The synthesized 6 peptides were each diluted to 1 μg/mL with PBS(−) and immobilized onto 96-well plates. ELISA was conducted using the biotinylated anti-active GIP monoclonal antibody and a peroxidase-streptavidin conjugate for detection.
In general terms: ELISA stands for enzyme-linked immunosorbent assay.

Assay [2] addresses T2, GIP(1-6)+GIP nonspecific 4aa (random 4aa) synthetic peptide.
T2 construct: also called GIP(1-6)+random 4aa
T2 peptide: H-YAEGTFVNLV-OH
Described as above. As to the method:
as §1

The target in assay [3] is T3, GIP(1-7) synthetic peptide.
T3 peptide: H-YAEGTFI-OH
The assay is described as above. As to the method: as §1

Assay [4] deals with T4, GIP (1-10) synthetic peptide.
T4 construct: Free NH2 and COOH termini as printed
T4 peptide: H-YAEGTFISDY-OH
Nature of the assay: direct ELISA on immobilized peptide (1 µg/mL), biotinylated antibody, peroxidase-streptavidin. On the procedure: as §1

The target of assay [5] is T5, GIP (1-9) synthetic peptide.
T5 peptide: H-YAEGTFISD-OH
The assay is described as above. As to the method:
as §1

Assay [6] has as its target T6, GIP(1-8) synthetic peptide.
T6 peptide: H-YAEGTFIS-OH
The description is as above. As to the method: as §1

Assay [7] concerns the target T7, PEGylated N-terminal 13 amino acids of nonactive GIP (GIP(3-15)), antigen (2) for measurement (human, also: PEGylated, site not given here).
T7 construct: also called PEGylated GIP(3-15)
T7 peptide: EGTFISDYSIAMD
Nature of the assay: ELISA on immobilized antigen, hybridoma culture supernatant, HRP-labeled anti-mouse Ig secondary antibody. On the procedure:
(§2) The antigens (1) and (2) for measurement were each diluted to 1 μg/mL with PBS(−) and immobilized onto plates.

The next assay addresses T8, nonactive GIP, GIP(3-42) (human).
T8 peptide: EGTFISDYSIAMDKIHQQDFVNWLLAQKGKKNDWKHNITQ
Kind of assay: sandwich ELISA, anti-total GIP capture antibody, biotinylated anti-active GIP antibody (1 µg/mL) as detection. As to the method:
(§3) The reactivity of the monoclonal antibody obtained in Example 1 with active GIP was confirmed by ELISA. The amino group of the anti-active GIP monoclonal antibody was biotinylated using a NH₂ group biotinylation kit (manufactured by Dojindo Laboratories). ELISA was conducted using 1 μg/mL prepared biotinylated anti-active GIP monoclonal antibody instead of a detection antibody ‘GIP detection antibody’ (biotinylated anti-total GIP monoclonal antibody) included in Human (total) GIP ELISA kit (manufactured by Merck Millipore). Six 4-fold serial dilutions (8.2 to 2000 pg/mL) were prepared with a 2000 pg/mL solution of GIP(1-42) or GIP(3-42) as the highest concentration. The capture antibody used was an anti-total GIP monoclonal antibody (included in the Human GIP (total) ELISA kit manufactured by Merck Millipore). The detection antibody used was the biotinylated anti-active GIP monoclonal antibody. A sandwich ELISA system containing a peroxidase-streptavidin conjugate was used in detection. GIP concentrations were plotted on the X axis against absorbance of 450 nm to 590 nm on the Y axis to prepare a calibration curve (FIG. 1).

Assay [8] addresses T9, PEGylated N-terminal 15 amino acids of active GIP (GIP(1-15)), antigen (1) for measurement (human, also: PEGylated, site not given here).
T9 construct: also called PEGylated GIP(1-15)
T9 peptide: YAEGTFISDYSIAMD
Kind of assay: ELISA on immobilized antigen (1 µg/mL), hybridoma culture supernatant, HRP-labeled anti-mouse Ig secondary antibody. As to the method:
as §2

The target in a further assay is T10, active GIP, GIP(1-42) (human).
T10 construct: also called human active GIP
T10 peptide: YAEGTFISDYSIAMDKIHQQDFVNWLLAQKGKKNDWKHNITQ
Kind of assay: sandwich ELISA, anti-total GIP capture antibody, biotinylated anti-active GIP antibody (1 µg/mL) as detection, GIP 8.2 to 2000 pg/mL. On the procedure:
as §3

B1: anti-active GIP monoclonal antibody produced from hybridoma 9B9H5-B9 line (antibody, V domains shown)
VH: QVQLQQPGAELVKPGASVKLSCKASGYTFTSFWMHWVIQRPGQGLEWIGEMNPSDGRTHFNEKFKTKATLTIDTSSNTAYMELNSLTSEDSAVYYCARRMEDWGQGTLVTVSA
VL: DIKMTQSPSSMYASLGERVTITCKASQDINSYLGWFQQKPGKSPKTLIYGANRLVDGVPSRFSGSGSGQDYSLTISSLEYDDMGIYYCLQYDEFPLTFGAGTKLELKR
notes: Mouse (BALB/c) hybridoma monoclonal antibody, purified on protein A. It was amplified with a mouse IgG H chain-specific primer; also called biotinylated anti-active GIP monoclonal antibody; anti-active GIP antibody of the present invention
With B1, the binding result is recorded as “no binding (tested: peptide coated at 1 µg/mL)” in assay [1]; “no binding (tested: peptide coated at 1 µg/mL)” in assay [2]; “no binding (tested: peptide coated at 1 µg/mL)” in assay [3]; “binds” in assay [4]; “binds” in assay [5]; “binds” in assay [6]. Also, the binding result in [7] is given as “no binding (tested: antigen coated at 1 µg/mL)”; with nonactive GIP, GIP(3-42) it was “no binding (tested: 8.2 to 2000 pg/mL)”; in assay [8] it was “binds”; with active GIP, GIP(1-42), “binds”.
